In the supplement of paper PMC12042874 one finds amyloid nucleation score data, which are given here for 58 substances.

± gives the uncertainty stated by the source.

A short description of the series: amyloid nucleation score (Sup35N fusion, yeast selection) (log enrichment); library NNK2; higher = more nucleation; inactive = no reads after selection. The procedure, abridged:
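Peptides of 20 random codons, each fused to Sup35N, were expressed in psi-negative yeast. Cells were induced with 100 μM copper sulfate for 24 hours and grown 7 days at 30°C on medium lacking adenine and uracil, and plasmid inserts before and after selection were Illumina-sequenced. Nucleation scores are DiMSum log enrichments of output over input reads, centred on the mode score of non-aggregating sequences, and sequences under 100 input reads were excluded.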

With WLQSETIHDVRSLRWVSIKC, the amyloid nucleation score worked out at 0.043 ± 0.74.

Take ICMAGEVGKQRGYLDGGMP: the amyloid nucleation score came out at 0.505 ± 0.54.

The substance SYMFDSEVQVRTDFLLFCYI registered an amyloid nucleation score of 0.346 ± 0.17.

WPGLCYCGMPVRMNWLLVTP: the amyloid nucleation score is -0.661 ± 1.1.

Regarding TIIRDFSWLHLGFPRACIIT, the amyloid nucleation score was -0.976 ± 0.64.

In turn, GFPVWNVYLKSNGHVCDGLG showed an amyloid nucleation score of 1.31 ± 0.15.

Consider ELCPAT, for which the amyloid nucleation score is 0.219 ± 0.3.

With MFAFMNFRRTIVVYEVWGSY, the amyloid nucleation score result was “inactive”.

For PELSNDQGYFVDSVKSGKVE, the amyloid nucleation score is -0.036 ± 0.48.

Turning to PDVPIFCPYAAAMKVAVCYR, the amyloid nucleation score was -0.526 ± 0.76.

In the case of YEPCLRSQNVSS, the amyloid nucleation score worked out at 0.112 ± 0.79.

As to LRYHKTILYTRFSRNHTYAT, the amyloid nucleation score was determined as 0.498 ± 0.74.

In turn, IFAVGTTTASKCVWKIVEQE yielded an amyloid nucleation score of 2.09 ± 0.11.

YFSFTGPHLDVA: the amyloid nucleation score was -0.937 ± 0.34.

As to DTERRC, the amyloid nucleation score is -1.06 ± 0.61.

GMNFHRGLMLNGVCIFSLLW: the amyloid nucleation score was determined as 0.491 ± 0.38.

In turn, FNCHCSLSLVNHLASFTLSF came in with an amyloid nucleation score of 1.8 ± 0.16.

On to LWIVMVVRTTQQTYATMGHG, for which the amyloid nucleation score is 0.955 ± 0.29.

As for FSSSYCNVYYWFYMFFHWG, the amyloid nucleation score came to 1.25 ± 0.14.

SWLTRIC: the amyloid nucleation score is -0.249 ± 0.63.

TVFWGTMVGPQRGVVGLESF showed an amyloid nucleation score of 0.593 ± 0.74.

GWSSSGVVIRVPGSFRLVGR came in with an amyloid nucleation score of 1.39 ± 0.45.

WQTEFIYSQVSTVGYKRLEG displayed an amyloid nucleation score of 2.38 ± 0.089.

For RVSTNGFVSQPMRWYVIVDS, the amyloid nucleation score is -0.142 ± 0.25.

As for MLARFSSHVPGTDVNPIGRQ, the amyloid nucleation score is 0.317 ± 0.5.

For the substance RLYNSQFIKYWNFSSRCCLL, the amyloid nucleation score was determined as 3.51 ± 0.098.

For CTEGQLN, the amyloid nucleation score was determined as 0.002 ± 0.55.

For the substance GNYVSTFFKCRILYRMNLMF, the amyloid nucleation score is -0.121 ± 1.1.

LCYFCISGDRHSLEVKTLVT had an amyloid nucleation score of -0.527 ± 0.4.

In the case of GLNISPRMYCF, the amyloid nucleation score amounted to 0.002 ± 0.28.

For the substance WFIRIAIMARSFCIIALVPR, the amyloid nucleation score was -1.22 ± 0.47.

The substance FVGDTIQVVIWLMIIYFWFF showed an amyloid nucleation score of 0.959 ± 0.74.

For the substance RSGVL, the amyloid nucleation score stood at 4.24 ± 0.066.

In turn, FLLWIHF registered an amyloid nucleation score of 1.04 ± 0.44.

As for PTQVSDLDNLTDCPRGVLPC, the amyloid nucleation score is -0.735 ± 0.48.

The substance NCGRTNGLCPGYVCVSRLAW showed an amyloid nucleation score of 1.09 ± 0.21.

The substance HQVFPAKAGLPALVYLLGFY showed an amyloid nucleation score of 0.602 ± 0.81.

With GLSAKNH, the amyloid nucleation score amounted to 0.279 ± 0.39.

For NRDFMCESVRNCTLALMIGS, the amyloid nucleation score entry is “inactive”.

In the case of EGCHVGNLDCLPSETATVSV, the amyloid nucleation score amounted to 0.143 ± 0.79.

Regarding TLYKFM, the amyloid nucleation score was -0.476 ± 0.74.

RCIYWHVTVIFIMDIWVRTY: the amyloid nucleation score turned out to be 0.415 ± 0.17.

The substance CDFDIHERMCPYCYIIQVGD came in with an amyloid nucleation score of -0.081 ± 0.65.

VIIGIFCNSKSS registered an amyloid nucleation score of 4.33 ± 0.1.

In the case of HLWVWFRYSSRSFSHMLGDC, the amyloid nucleation score turned out to be 2.92 ± 0.15.

CRCGWKGDSFKISMKMRNWV returned an amyloid nucleation score of 5.36 ± 0.066.

As for TKEFGECFIQMIMYNGRDIL, the amyloid nucleation score was 1.88 ± 0.1.

In the case of CVVRSSAKRFDCRKFGRASN, the amyloid nucleation score worked out at 0.599 ± 0.8.

In the case of RAVDDYRE, the amyloid nucleation score turned out to be 0.88 ± 0.3.

For LLTRLKGGPPARAPHSTSGL, the amyloid nucleation score stood at 1.91 ± 0.13.

On to DMMCLLFGAKFNVQTGTHS, for which the amyloid nucleation score worked out at 5.231 ± 0.052.

In turn, VWYSDDWSWWGARRLCKNRR yielded an amyloid nucleation score of 0.236 ± 1.1.

NINLA: the amyloid nucleation score result was “inactive”.

The substance DASMQF had an amyloid nucleation score of 0.797 ± 0.57.

EKNTMDF gave an amyloid nucleation score of 1.64 ± 0.19.

Consider CDHVVVIIIVGWGAEGE, for which the amyloid nucleation score came to 0.512 ± 0.25.

GTRYDT returned an amyloid nucleation score of 0.468 ± 0.32.

VVLRVLISFSHSTIRLEGLV came in with an amyloid nucleation score of 2.84 ± 0.093.
